Data on five molecules can be found in article PMC5772613, “Phosphorylation induced cochaperone unfolding promotes kinase recruitment and client class-specific Hsp90 phosphorylation” (Nature Communications, 2018).

Square brackets hold non-standard residues; d marks the D form. Ends that are not written are not given here. pY = N[C@@H](Cc1ccc(OP(=O)(O)O)cc1)C(=O)O

Common to all, as to details: both partners purified
Assay [1] concerns the target T1, Full-length Hsp90β (UniProt P08238 1-724).
T1 construct: Hsp90β (printed as full-length Hsp90αβ1), in pET28; also called Hsp90αβ1
The experiment in a line: ITC; cochaperone Cdc37 (~300-400 μM, syringe) titrated into Hsp90β variants (~20-30 μM, cell); 25 °C; 20 mM Tris, 100 mM NaCl, 0.5 mM EDTA, 1 mM TCEP; single binding site model.

Assay [2] deals with T1, Full-length Hsp90β. The experiment in a line: SEC; analytical, Biorad Enrich SEC 650, 4 °C; 20 mM Tris pH 7.5, 100 mM NaCl, 0.5 mM EDTA, 2 mM DTT; binary mixtures 1:1 and ternary mixtures Hsp90:Cdc37:bRaf 2:1:1, incubated 15 min at 4 °C. For orientation: Size exclusion chromatography separates by hydrodynamic size, large species first.
The next assay concerns the target T2, SH2 domain of Yes (UniProt P07947 158-255).
T2 construct: Yes, SH2 domain; Gift of Bruce Mayer (pGEX); 15N-labelled for NMR; also called Yes^SH2; SH2^Yes; source: E. coli BL21(DE3), purified (GST column, PreScission cleavage, second GST column, Superdex 75); not shown: GST, N-terminal, cleaved
The experiment in a line: ITC; phosphopeptide (600-750 μM, syringe) titrated into SH2 domain (50-60 μM, cell); 25 °C; 20 mM Tris, 100 mM NaCl, 0.5 mM EDTA, 1 mM TCEP; single binding site model. (In general: Isothermal titration calorimetry measures the heat released or taken up as one component is titrated into another.)

The Kd is a measure of binding affinity in units of concentration.

T1 sequence (P08238 whole entry): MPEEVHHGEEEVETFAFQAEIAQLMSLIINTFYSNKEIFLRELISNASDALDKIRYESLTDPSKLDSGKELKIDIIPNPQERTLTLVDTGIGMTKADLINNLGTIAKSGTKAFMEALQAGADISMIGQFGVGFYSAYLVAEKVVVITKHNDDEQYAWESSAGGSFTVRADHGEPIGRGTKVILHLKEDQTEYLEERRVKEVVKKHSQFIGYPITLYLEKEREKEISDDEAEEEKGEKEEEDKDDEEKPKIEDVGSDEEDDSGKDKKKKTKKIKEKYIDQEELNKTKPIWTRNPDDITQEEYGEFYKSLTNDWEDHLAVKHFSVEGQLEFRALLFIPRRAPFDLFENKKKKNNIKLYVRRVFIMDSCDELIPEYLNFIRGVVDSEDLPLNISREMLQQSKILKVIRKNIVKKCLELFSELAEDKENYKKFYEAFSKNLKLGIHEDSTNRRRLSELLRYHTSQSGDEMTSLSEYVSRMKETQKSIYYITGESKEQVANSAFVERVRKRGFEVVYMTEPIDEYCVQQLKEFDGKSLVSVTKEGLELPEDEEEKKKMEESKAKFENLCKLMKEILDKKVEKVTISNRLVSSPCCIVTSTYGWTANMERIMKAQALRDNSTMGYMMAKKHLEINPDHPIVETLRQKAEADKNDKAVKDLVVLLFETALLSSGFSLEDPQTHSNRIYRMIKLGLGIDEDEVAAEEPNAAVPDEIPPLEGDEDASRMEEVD
T2 sequence (P07947 158-255): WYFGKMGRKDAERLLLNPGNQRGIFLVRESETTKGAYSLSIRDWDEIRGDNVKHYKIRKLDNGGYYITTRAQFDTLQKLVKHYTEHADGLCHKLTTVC

B1: Full-length human Cdc37 (natural protein, UniProt Q16543 1-378, looked up)
chain: MVDYSVWDHIEVSDDEDETHPNIDTASLFRWRHQARVERMEQFQKEKEELDRGCRECKRKVAECQRKLKELEVAEGGKAELERLQAEAQQLRKEERSWEQKLEEMRKKEKSMPWNVDTLSKDGFSKSMVNTKPEKTEEDSEEVREQKHKTFVEKYEKQIKHFGMLRRWDDSQKYLSDNVHLVCEETANYLVIWCIDLEVEEKCALMEQVAHQTIVMQFILELAKSLKVDPRACFRQFFTKIKTADRQYMEGFNDELEAFKERVRGRAKLRIEKAMKEYEEEERKKRLGPGGLDPVEVYESLPEELQKCFDVKDVQMLQDAISKMDPTDAKYHMQRCIDSGLWVPNSKASEAKEGEEAGPGDPLLEAVPKTGDEKDVSV
notes: Cdc37 (p50), human, full length; isotope-labelled in some NMR samples; also called p50; wild-type Cdc37
B1: the binding result with Full-length Hsp90β [1] is recorded as “binds”.

B2: Full-length Cdc37 carrying the phosphomimetic mutation Y298E (natural protein, human, UniProt Q16543 1-378, looked up)
chain: MVDYSVWDHIEVSDDEDETHPNIDTASLFRWRHQARVERMEQFQKEKEELDRGCRECKRKVAECQRKLKELEVAEGGKAELERLQAEAQQLRKEERSWEQKLEEMRKKEKSMPWNVDTLSKDGFSKSMVNTKPEKTEEDSEEVREQKHKTFVEKYEKQIKHFGMLRRWDDSQKYLSDNVHLVCEETANYLVIWCIDLEVEEKCALMEQVAHQTIVMQFILELAKSLKVDPRACFRQFFTKIKTADRQYMEGFNDELEAFKERVRGRAKLRIEKAMKEYEEEERKKRLGPGGLDPVEVEESLPEELQKCFDVKDVQMLQDAISKMDPTDAKYHMQRCIDSGLWVPNSKASEAKEGEEAGPGDPLLEAVPKTGDEKDVSV
notes: Cdc37 (p50), human, full length, point mutant; Point mutants made by QuikChange; Methyl-labelled for the NMR sample with Hsp90α; also called Cdc37^Y298E
In the case of B2, the binding result with Full-length Hsp90β [2] is “binds”.

B3: Cdc37 double-phosphomimetic mutant Y4E/Y298E (natural protein, human, UniProt Q16543 1-378, looked up)
chain: MVDESVWDHIEVSDDEDETHPNIDTASLFRWRHQARVERMEQFQKEKEELDRGCRECKRKVAECQRKLKELEVAEGGKAELERLQAEAQQLRKEERSWEQKLEEMRKKEKSMPWNVDTLSKDGFSKSMVNTKPEKTEEDSEEVREQKHKTFVEKYEKQIKHFGMLRRWDDSQKYLSDNVHLVCEETANYLVIWCIDLEVEEKCALMEQVAHQTIVMQFILELAKSLKVDPRACFRQFFTKIKTADRQYMEGFNDELEAFKERVRGRAKLRIEKAMKEYEEEERKKRLGPGGLDPVEVEESLPEELQKCFDVKDVQMLQDAISKMDPTDAKYHMQRCIDSGLWVPNSKASEAKEGEEAGPGDPLLEAVPKTGDEKDVSV
notes: Cdc37 (p50), human, double point mutant of the full-length construct; also called Cdc37^EE; C^EE
For the molecule B3, in the assay with Full-length Hsp90β [2], the binding result is “binds”.

B4: Cdc37 single phosphomimetic mutant Y4E (natural protein, human, UniProt Q16543 1-378, looked up)
chain: MVDESVWDHIEVSDDEDETHPNIDTASLFRWRHQARVERMEQFQKEKEELDRGCRECKRKVAECQRKLKELEVAEGGKAELERLQAEAQQLRKEERSWEQKLEEMRKKEKSMPWNVDTLSKDGFSKSMVNTKPEKTEEDSEEVREQKHKTFVEKYEKQIKHFGMLRRWDDSQKYLSDNVHLVCEETANYLVIWCIDLEVEEKCALMEQVAHQTIVMQFILELAKSLKVDPRACFRQFFTKIKTADRQYMEGFNDELEAFKERVRGRAKLRIEKAMKEYEEEERKKRLGPGGLDPVEVYESLPEELQKCFDVKDVQMLQDAISKMDPTDAKYHMQRCIDSGLWVPNSKASEAKEGEEAGPGDPLLEAVPKTGDEKDVSV
notes: Cdc37 (p50), human, point mutant of the full-length construct; also called Cdc37^Y4E
Turning to B4, in the assay with Full-length Hsp90β [2], the binding result is recorded as “binds”.

B5: Phosphotyrosine-modified decapeptide EVpYESLPEEL of Cdc37 (residues 296-305) (peptide)
peptide: EV[pY]ESLPEEL
notes: Cdc37, residues 296-305; also called phosphopeptide; source: synthetic peptide (GL Biochem)
In turn, B5 registered a Kd with SH2 domain of Yes of 410 nM.
